Assays:
[1] = target: T1, 原核表达的重组人Calcitonin蛋白 (PET28a-Calcitonin, 大肠杆菌BL21表达, Ni-NTA纯化) (human) (UniProt P01258); experiment: ELISA titer, as told in the summary of results
T1 sequence (looked up): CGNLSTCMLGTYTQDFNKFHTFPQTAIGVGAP

[2] = target: T1, 原核表达的重组人Calcitonin蛋白 (PET28a-Calcitonin, 大肠杆菌BL21表达, Ni-NTA纯化) (human); experiment: direct ELISA, purified antibody diluted 1:200 to 1:12800 on plates coated with purified Calcitonin protein (10 μg/ml), goat anti-mouse IgG-HRP, OD450

ELISA滴度 (dilution (1:x)) [1]: > 100000
ELISA滴度 (dilution (1:x)) [2]: > 10000
B1: 小鼠抗人Calcitonin单克隆抗体 (杂交瘤细胞株7D5, CGMCC No.6919 产生) (antibody, part only; not given: light chain variable region, V domains shown, part only)
VH: LFCQTAGVHSEVQLQQSGPELVKPGTSVKMSCKASGYTFTSYVIHWVKQKPGQGLEWIGYINPYNVGTKYNEKFRDKATLTSDKSSNTAYMELSSLTSEDFAVYYCVRS

From CN105483091A
